The source of these data is the supplement of paper PMC10567573.

B1: VAMP4 (parent)
chain: IMALVAAILLLVIIILIVMKYRT
B2: ANKRD17 (parent)
chain: EMVRFLLEAGADQEHKTDEMHTAL
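Also: lentivirally expressed fusions sorted by FACS into six bins by GFP to DsRed ratio, PSI derived from sequencing read proportions per bin multiplied by bin number.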

In the first data set the parent is B1. In words: protein stability index of a GFP-peptide fusion (GPS, HEK-293T) (PSI 1-6); higher = more stable. To be noted: c terminus: native.
As for IMALVAAILLLVIIILIVMQYRT [K20Q], the protein stability index came to 2.82.

As for IMALVAAILLLVIIILIVMPYRT [K20P], the protein stability index is 2.62. On the same count and under the same terms, the value for IMALVAAILLLVIIILIVMVYRT [K20V] was 4.06; that for IMALVAAILLLVIIILIVMTYRT [K20T] was 3.59; that for IMALVAAILLLVIIILITMKYRT [V18T] was 2.87. The same measure, in the same setting: next, IMALVAAILLLVIIILIKMKYRT [V18K]: 1.68; IMALVAAILLLVIIILIMMKYRT [V18M]: 3.39; IMALVAAILLLVIIILIHMKYRT [V18H]: 2.38. As to IMALVAAILLLVIIPLIVMKYRT [I15P], the protein stability index worked out at 3.92. On to IMALVAAILLLVIICLIVMKYRT [I15C], for which the protein stability index came out at 3.51.

For the variant IMALVAAILLLVIIRLIVMKYRT [I15R], the protein stability index turned out to be 1.9. As for IMALDAAILLLVIIILIVMKYRT [V5D], the protein stability index is 2.77.

In the case of IMALAAAILLLVIIILIVMKYRT [V5A], the protein stability index came out at 3.36. On the same count and under the same terms, the value for IMALHAAILLLVIIILIVMKYRT [V5H] was 2.13; that for IMALYAAILLLVIIILIVMKYRT [V5Y] was 3.72; that for IMALKAAILLLVIIILIVMKYRT [V5K] was 2.1. Still for that read-out and setting: next, IMALVAAILLLVIIILIVMKPRT [Y21P]: 2.98; IMALVAAILLLVIIILIVMKLRT [Y21L]: 3.28. Same read-out and setting: next, IMALVAAILLLVIIILIVMKIRT [Y21I]: 3.26. Turning to IMALVAAILLLVIIILIVMKKRT [Y21K], the protein stability index worked out at 1.98. On the same count and under the same terms, next, IMALVAFILLLVIIILIVMKYRT [A7F]: 3.74; IMCLVAAILLLVIIILIVMKYRT [A3C]: 3.34; IMYLVAAILLLVIIILIVMKYRT [A3Y]: 3.55. On the same count and under the same terms, the value for IMILVAAILLLVIIILIVMKYRT [A3I] was 3.5; that for IMALVAAILLLVSIILIVMKYRT [I13S] was 3.36; that for IMALVAAWLLLVIIILIVMKYRT [I8W] was 2.47. Turning to IMALVAAILLLVIIILIVMKYRG [T23G], the protein stability index amounted to 3.81.

IMALVAAILLLVIIILIVMKYRI [T23I]: the protein stability index was 2.95. The same measure, in the same setting: next, IMALVAAILLLVIIILIVMKYRC [T23C]: 3.53; IMALVAAILLLVIIILIVMKYRA [T23A]: 3.69. Same read-out and setting: next, IMALVAAILLLVIIILIVMKYRQ [T23Q]: 3.1; IMALVAAILLLVIIILIVMKYRK [T23K]: 2.31; IMALVAAIWLLVIIILIVMKYRT [L9W]: 2.76. On to IMALVAAIQLLVIIILIVMKYRT [L9Q], for which the protein stability index is 2.29. Still for that read-out and setting: the value for IMALVAAITLLVIIILIVMKYRT [L9T] was 3.08; that for IMALVAAILLLVIRILIVMKYRT [I14R] was 2.56; that for IMALVAAILLLVIHILIVMKYRT [I14H] was 1.92. For the variant IMALVAAILLLVINILIVMKYRT [I14N], the protein stability index is 2.17. The same measure, in the same setting: the value for IMALVAAILLLVIWILIVMKYRT [I14W] was 2.71; that for IMALVAAILLLVIKILIVMKYRT [I14K] was 1.92. The same measure, in the same setting: the value for IMALVAAILLLVIDILIVMKYRT [I14D] was 1.5; that for IMALVAAILLWVIIILIVMKYRT [L11W] was 2.84; that for IMALVAAILLPVIIILIVMKYRT [L11P] was 3.43. In the case of KMALVAAILLLVIIILIVMKYRT [I1K], the protein stability index was 3.29. On the same count and under the same terms, next, MMALVAAILLLVIIILIVMKYRT [I1M]: 3.56. On the same count and under the same terms, the value for WMALVAAILLLVIIILIVMKYRT [I1W] was 3.51; that for LMALVAAILLLVIIILIVMKYRT [I1L] was 3.49. The same measure, in the same setting: the value for HMALVAAILLLVIIILIVMKYRT [I1H] was 3.39; that for CMALVAAILLLVIIILIVMKYRT [I1C] was 3.16. With IMALVNAILLLVIIILIVMKYRT [A6N], the protein stability index was 2.1. Still for that read-out and setting: the value for IMAQVAAILLLVIIILIVMKYRT [L4Q] was 2.19; that for IMAVVAAILLLVIIILIVMKYRT [L4V] was 3.14; that for IMACVAAILLLVIIILIVMKYRT [L4C] was 3.07.

Regarding IMALVAAILKLVIIILIVMKYRT [L10K], the protein stability index amounted to 1.97.

In the case of IMALVAAILALVIIILIVMKYRT [L10A], the protein stability index was determined as 2.87. The same measure, in the same setting: the value for IMALVAAILDLVIIILIVMKYRT [L10D] was 3.06. The same measure, in the same setting: next, IMALVAAILLLVIIILSVMKYRT [I17S]: 3.07.

Regarding IMALVAAILLLVIIILTVMKYRT [I17T], the protein stability index is 3.26.

Consider IMALVAAILLLVIIILIVMKYET [R22E], for which the protein stability index turned out to be 3.24. Same read-out and setting: next, IMALVAAILLLVIIILIVMKYYT [R22Y]: 3.56; IMALVAAILLLVIIILIVMKYST [R22S]: 3.82.

As to IMALVAAILLLVIIILIVCKYRT [M19C], the protein stability index came out at 2.78.

IEALVAAILLLVIIILIVMKYRT [M2E]: the protein stability index came out at 2.4. As to IPALVAAILLLVIIILIVMKYRT [M2P], the protein stability index was 3.28. The same measure, in the same setting: the value for IMALVAAILLLVIIIDIVMKYRT [L16D] was 2.44. The same measure, in the same setting: next, IMALVAAILLLVIIIRIVMKYRT [L16R]: 2.33.

Another data set covers variants of B2. The data set is described as above. To be noted: c terminus: a fixed tail appended.
For the variant EMVRFLLEAGADQEHKTDETHTAL [M20T], the protein stability index was 3.15. The same measure, in the same setting: next, EMVRFLLEAGADQEHKTDEDHTAL [M20D]: 3.56; EMVRFLLEAGADQEHKTDEPHTAL [M20P]: 3.21; EMVRFLLEAGADQEHKTDESHTAL [M20S]: 3.45. Take EMVRFLLEAGADQEHKTDEKHTAL [M20K]: the protein stability index worked out at 2.94. The same measure, in the same setting: the value for EMVRFLLEAGADQEHKTDEEHTAL [M20E] was 2.94. As for EMVRFLLEAGADQEHKTDEVHTAL [M20V], the protein stability index was determined as 2.84. On the same count and under the same terms, next, EMVRFLLEAGADQEHKTDENHTAL [M20N]: 3.59; EMVRFLLEAGADQEHKTDEWHTAL [M20W]: 2.82; EMVRFLLEAGADQEHKTDEFHTAL [M20F]: 2.75. Same read-out and setting: the value for EMVRFLLEAGADQEHKTDERHTAL [M20R] was 3.5; that for EMVRFLLEAGADQEHKTDEGHTAL [M20G] was 3.12. Same read-out and setting: the value for EMVRFLLEAGADQEHKTDEHHTAL [M20H] was 2.79; that for EMVRFLLEAGADQEHKTDEIHTAL [M20I] was 2.36; that for EMVRFLLEAGADQEHKTDELHTAL [M20L] was 3.13. With EMVRFLLEAGADQEHKTDEAHTAL [M20A], the protein stability index worked out at 3.04. As to EMVRFLLEAGADQEHKTDEYHTAL [M20Y], the protein stability index is 2.45. Still for that read-out and setting: next, EMVRFLLEAGADQEHKTDECHTAL [M20C]: 2.48; EMVRFLLEAGADQEHKTDEQHTAL [M20Q]: 3; EMVRFLLEAGADQEHKTVEMHTAL [D18V]: 1.6. Regarding EMVRFLLEAGADQEHKTWEMHTAL [D18W], the protein stability index turned out to be 2.44.

On to EMVRFLLEAGADQEHKTYEMHTAL [D18Y], for which the protein stability index was 1.44.

On to EMVRFLLEAGADQEHKTSEMHTAL [D18S], for which the protein stability index amounted to 2.73. Same read-out and setting: next, EMVRFLLEAGADQEHKTQEMHTAL [D18Q]: 2.67. On the same count and under the same terms, the value for EMVRFLLEAGADQEHKTNEMHTAL [D18N] was 2.51. The same measure, in the same setting: the value for EMVRFLLEAGADQEHKTTEMHTAL [D18T] was 2.42; that for EMVRFLLEAGADQEHKTREMHTAL [D18R] was 2.1. As for EMVRFLLEAGADQEHKTMEMHTAL [D18M], the protein stability index was 2.1.

For the variant EMVRFLLEAGADQEHKTPEMHTAL [D18P], the protein stability index stood at 2.35.
